Laboratory results taken from paper PMC2674214 (PLoS ONE, 2009).

B1: AVFluFab03 (Fab, V domains shown)
VH: LESGGGLVQPGGSLRVSCTNSGFTFSDYAMSWVRQAPGKGLEWVSAISGNGGSSTYYADSVKGRFTISRDNSKNTMYLQMNSLRAEDTAVYYCVRDDSYDGGGQYGLHNWFDSWGQGTLVTV
VL: ELTQPPSVSGAPGQRVTISCTGSSSNIGAGYDVHWYQQLPGTAPKLLIYGNSNRPSGVPDRFSGSKSGTSASLAITGLQAEDEADYYCQSYDSSLVVFGGGTKLTVL
notes: also called Fab clone representing 25 of the 43 selected Fab clones; source: phagemid vector pComb3H, crude Fab antibody preparations
B2: AVFluIgG03 (antibody, V domains shown)
VH: B1 VH
VL: B1 VL
notes: also called rhAb AVFluIgG03; AVFluIg03; source: SF9 cells, purified on a Protein A column

Tests used:
[1] = molecular target: T1, hemagglutinin (HA) of A/Anhui/1/2005 (H5N1) virus (Influenza A virus A/Anhui/1/2005 (H5N1), UniProt Q1WDM0); assay: ELISA; conditions: one partner purified
[2] = molecular target: rHA of clade 0 H5N1 virus A/HongKong/156/97 (Influenza A virus A/Hong Kong/156/1997 …, UniProt O56140); assay: ELISA
[3] = molecular target: T1, hemagglutinin (HA) of A/Anhui/1/2005 …; assay: immunostaining of cells or tissue; conditions: one partner purified
[4] = molecular target: T2, rHA of AH/1/05 virus (full length HA) (Influenza A virus A/Anhui/1/2005 (H5N1), UniProt Q1WDM0); assay: immunostaining of cells or tissue; conditions: one partner purified
T2 construct: source: SF-9 cells infected with recombinant baculovirus (pAcUW51), on fixed cells

[5] = molecular target: T3, rHA1 of AH/1/05 virus (Influenza A virus A/Anhui/1/2005 (H5N1), UniProt Q1WDM0, strain); assay: immunostaining of cells or tissue; conditions: one partner purified
T3 construct: source: SF-9 cells infected with recombinant baculovirus (pAcUW51), on fixed cells

[6] = molecular target: T4, rHA2 of AH/1/05 virus (Influenza A virus A/Anhui/1/2005 (H5N1), UniProt Q1WDM0, strain); assay: immunostaining of cells or tissue; conditions: one partner purified
T4 construct: source: SF-9 cells infected with recombinant baculovirus (pAcUW51), on fixed cells

Binder | binding result [1] | binding result [2] | binding result [3] | binding result [4] | binding result [5] | binding result [6]
B1 | binds | – | – | – | – | –
B2 | – | no binding | binds | binds | binds | no binding
